Results taken from patent US20220042033A1, “COMPOSITION AND METHOD FOR CONFERRING AND/OR ENHANCING TOLERANCE AGAINST HERBICIDES BY USING VARIANTS OF PPO” (FarmHannong Co., Ltd., priority 2017, published 2022).

tested on: MxPPO; assay: PPO enzyme activity of purified MBP-fused MxPPO wild type and variants; format: biochemical, Myxococcus xanthus; settings: PPO enzyme activity of purified MxPPO protein, relative to wild type
Experimental: Thus, PPO proteins of wild type and variants were expressed as fused to MBP and were used for experiments.
The following process for purification of PPO protein was performed in a 4° C. cold room. […] The column was washed with 3 column volumes of buffer and the presence of protein in the washing solution was examined. When the protein was no longer detected, the washing procedure was terminated. Then, the MBP-PPO protein was eluted with approximately 2 column volumes of buffer containing 20 mM maltose. The protein concentration of each eluent was determined and the elution was stopped when the protein was no longer detected. Ten microliter of each fraction was investigated for protein quantification and SDS-PAGE analysis. The highly pure fractions of PPO protein variants were used for the enzyme assay.
Since protoporphyrinogen IX, a substrate of PPO protein, was not commercially available, it was chemically synthesized in the laboratory. Overall process was performed in dark under nitrogen stream. […] of protoporphyrin IX was dissolved in 20 ml of 20% (v/v) EtOH, and stirred under dark condition for 30 minutes. The obtained protoporphyrin IX solution was put into a 15 ml screw tube in an amount of 800 μl, and flushed with nitrogen gas for 5 minutes. To this, 1.5 g of sodium amalgam was added and vigorously shaken for 2 minutes. The lid was opened to exhaust hydrogen gas in the tube. Thereafter, the lid was closed and incubated for 3 minutes. The protoporphyrinogen IX solution was filtered using syringe and cellulose membrane filter. To 600 μl of the obtained protoporphyrinogen IX solution, approximately 300 μl of 2M MOPS [3-(N-morpholino) propanesulfonic acid] was added to adjust pH to 8.0. To determine the enzyme activity of PPO protein, a reaction mixture was prepared with the following composition (based on 10 ml): 50 mM Tris-Cl (pH 8.0); 50 mM NaCl; 0.04% (v/v) Tween 20; 40 mM glucose (0.072 g); 5 units glucose oxidase (16.6 mg); and 10 units catalase (1 μl).
Hundred and eighty microliters of a reaction mixture […] were placed in 96 well plates and 20 μl of purified PPO proteins were added. After 50 μl of the mineral oil was layered, the reaction was initiated by adding the substrate, protoporphyrinogen IX solution, to a final concentration of 50 μM. The reaction proceeded at room temperature for 30 min and the fluorescence of protoporphyrin IX was measured using Microplate reader (Sense, Hidex) (excitation: 405 nm; emission: 633 nm). To calculate the PPO enzyme activity, the protoporphyrinogen IX solution was kept open in the air overnight to oxidize the solution. To this, 2.7 N HCl was added, and the absorbance at 408 nm was measured. A standard curve was generated using standard protoporphyrin IX, and PPO activity was measured by calibration of protoporphyrin IX using the standard curve of protoporphyrin IX.
Activities of variants were presented relatively compared to that of wild type.

Molecule	Activity (%)
V164A: MxPPO (SEQ ID NO: 3) variant (protein, Synthetic (Protoporphyrinogen IX oxidase (MxPPO) of Myxococcus xanthus)) MHHMPRTTGMNVAVVGGGISGLAVAHHLRSRGTDAVLLESSARLGGAVGTHALAGYLVEQGPNSFLDREPATRALAAALNLEGRIRAADPAAKRRYVYTRGRLRSVPASPPAFLASDILPLGARLRVAGELFSRRAPEGVDESLAAFGRRHLGHRATQVLLDAAQTGIYAGDVEQLSVAATFPMLVKMEREHRSLILGAIRAQKAQRQAALPAGTAPKLSGALSTFDGGLQVLIDALAASLGDAAHVGARVEGLAREDGGWRLIIEEHGRRAELSVAQVVLAAPAHATAKLLRPLDDALAALVAGIAYAPIAVVHLGFDAGTLPAPDGFGFLVPAEEQRRMLGAIHASTTFPFRAEGGRVLYSCMVGGARQPGLVEQDEDALAALAREELKALAGVTARPSFTRVFRWPLGIPQYNLGHLERVAAIDAALQRLPGLHLIGNAYKGVGLNDCIRNAAQLADALVAGNTSHAP	75%
F329V: MxPPO (SEQ ID NO: 3) variant (protein, Synthetic (Protoporphyrinogen IX oxidase (MxPPO) of Myxococcus xanthus)) MHHMPRTTGMNVAVVGGGISGLAVAHHLRSRGTDAVLLESSARLGGAVGTHALAGYLVEQGPNSFLDREPATRALAAALNLEGRIRAADPAAKRRYVYTRGRLRSVPASPPAFLASDILPLGARLRVAGELFSRRAPEGVDESLAAFGRRHLGHRATQVLLDAVQTGIYAGDVEQLSVAATFPMLVKMEREHRSLILGAIRAQKAQRQAALPAGTAPKLSGALSTFDGGLQVLIDALAASLGDAAHVGARVEGLAREDGGWRLIIEEHGRRAELSVAQVVLAAPAHATAKLLRPLDDALAALVAGIAYAPIAVVHLGFDAGTLPAPDGVGFLVPAEEQRRMLGAIHASTTFPFRAEGGRVLYSCMVGGARQPGLVEQDEDALAALAREELKALAGVTARPSFTRVFRWPLGIPQYNLGHLERVAAIDAALQRLPGLHLIGNAYKGVGLNDCIRNAAQLADALVAGNTSHAP	91%
I345T: MxPPO (SEQ ID NO: 3) variant (protein, Synthetic (Protoporphyrinogen IX oxidase (MxPPO) of Myxococcus xanthus)) MHHMPRTTGMNVAVVGGGISGLAVAHHLRSRGTDAVLLESSARLGGAVGTHALAGYLVEQGPNSFLDREPATRALAAALNLEGRIRAADPAAKRRYVYTRGRLRSVPASPPAFLASDILPLGARLRVAGELFSRRAPEGVDESLAAFGRRHLGHRATQVLLDAVQTGIYAGDVEQLSVAATFPMLVKMEREHRSLILGAIRAQKAQRQAALPAGTAPKLSGALSTFDGGLQVLIDALAASLGDAAHVGARVEGLAREDGGWRLIIEEHGRRAELSVAQVVLAAPAHATAKLLRPLDDALAALVAGIAYAPIAVVHLGFDAGTLPAPDGFGFLVPAEEQRRMLGATHASTTFPFRAEGGRVLYSCMVGGARQPGLVEQDEDALAALAREELKALAGVTARPSFTRVFRWPLGIPQYNLGHLERVAAIDAALQRLPGLHLIGNAYKGVGLNDCIRNAAQLADALVAGNTSHAP	33%
I168C: MxPPO (SEQ ID NO: 3) variant (protein, Synthetic (Protoporphyrinogen IX oxidase (MxPPO) of Myxococcus xanthus)) MHHMPRTTGMNVAVVGGGISGLAVAHHLRSRGTDAVLLESSARLGGAVGTHALAGYLVEQGPNSFLDREPATRALAAALNLEGRIRAADPAAKRRYVYTRGRLRSVPASPPAFLASDILPLGARLRVAGELFSRRAPEGVDESLAAFGRRHLGHRATQVLLDAVQTGCYAGDVEQLSVAATFPMLVKMEREHRSLILGAIRAQKAQRQAALPAGTAPKLSGALSTFDGGLQVLIDALAASLGDAAHVGARVEGLAREDGGWRLIIEEHGRRAELSVAQVVLAAPAHATAKLLRPLDDALAALVAGIAYAPIAVVHLGFDAGTLPAPDGFGFLVPAEEQRRMLGAIHASTTFPFRAEGGRVLYSCMVGGARQPGLVEQDEDALAALAREELKALAGVTARPSFTRVFRWPLGIPQYNLGHLERVAAIDAALQRLPGLHLIGNAYKGVGLNDCIRNAAQLADALVAGNTSHAP	47%
L332T: MxPPO (SEQ ID NO: 3) variant (protein, Synthetic (Protoporphyrinogen IX oxidase (MxPPO) of Myxococcus xanthus)) MHHMPRTTGMNVAVVGGGISGLAVAHHLRSRGTDAVLLESSARLGGAVGTHALAGYLVEQGPNSFLDREPATRALAAALNLEGRIRAADPAAKRRYVYTRGRLRSVPASPPAFLASDILPLGARLRVAGELFSRRAPEGVDESLAAFGRRHLGHRATQVLLDAVQTGIYAGDVEQLSVAATFPMLVKMEREHRSLILGAIRAQKAQRQAALPAGTAPKLSGALSTFDGGLQVLIDALAASLGDAAHVGARVEGLAREDGGWRLIIEEHGRRAELSVAQVVLAAPAHATAKLLRPLDDALAALVAGIAYAPIAVVHLGFDAGTLPAPDGFGFTVPAEEQRRMLGAIHASTTFPFRAEGGRVLYSCMVGGARQPGLVEQDEDALAALAREELKALAGVTARPSFTRVFRWPLGIPQYNLGHLERVAAIDAALQRLPGLHLIGNAYKGVGLNDCIRNAAQLADALVAGNTSHAP	87%
M365V: MxPPO (SEQ ID NO: 3) variant (protein, Synthetic (Protoporphyrinogen IX oxidase (MxPPO) of Myxococcus xanthus)) MHHMPRTTGMNVAVVGGGISGLAVAHHLRSRGTDAVLLESSARLGGAVGTHALAGYLVEQGPNSFLDREPATRALAAALNLEGRIRAADPAAKRRYVYTRGRLRSVPASPPAFLASDILPLGARLRVAGELFSRRAPEGVDESLAAFGRRHLGHRATQVLLDAVQTGIYAGDVEQLSVAATFPMLVKMEREHRSLILGAIRAQKAQRQAALPAGTAPKLSGALSTFDGGLQVLIDALAASLGDAAHVGARVEGLAREDGGWRLIIEEHGRRAELSVAQVVLAAPAHATAKLLRPLDDALAALVAGIAYAPIAVVHLGFDAGTLPAPDGFGFLVPAEEQRRMLGAIHASTTFPFRAEGGRVLYSCVVGGARQPGLVEQDEDALAALAREELKALAGVTARPSFTRVFRWPLGIPQYNLGHLERVAAIDAALQRLPGLHLIGNAYKGVGLNDCIRNAAQLADALVAGNTSHAP	77%
A170C: MxPPO (SEQ ID NO: 3) variant (protein, Synthetic (Protoporphyrinogen IX oxidase (MxPPO) of Myxococcus xanthus)) MHHMPRTTGMNVAVVGGGISGLAVAHHLRSRGTDAVLLESSARLGGAVGTHALAGYLVEQGPNSFLDREPATRALAAALNLEGRIRAADPAAKRRYVYTRGRLRSVPASPPAFLASDILPLGARLRVAGELFSRRAPEGVDESLAAFGRRHLGHRATQVLLDAVQTGIYCGDVEQLSVAATFPMLVKMEREHRSLILGAIRAQKAQRQAALPAGTAPKLSGALSTFDGGLQVLIDALAASLGDAAHVGARVEGLAREDGGWRLIIEEHGRRAELSVAQVVLAAPAHATAKLLRPLDDALAALVAGIAYAPIAVVHLGFDAGTLPAPDGFGFLVPAEEQRRMLGAIHASTTFPFRAEGGRVLYSCMVGGARQPGLVEQDEDALAALAREELKALAGVTARPSFTRVFRWPLGIPQYNLGHLERVAAIDAALQRLPGLHLIGNAYKGVGLNDCIRNAAQLADALVAGNTSHAP	86%
M365I: MxPPO (SEQ ID NO: 3) variant (protein, Synthetic (Protoporphyrinogen IX oxidase (MxPPO) of Myxococcus xanthus)) MHHMPRTTGMNVAVVGGGISGLAVAHHLRSRGTDAVLLESSARLGGAVGTHALAGYLVEQGPNSFLDREPATRALAAALNLEGRIRAADPAAKRRYVYTRGRLRSVPASPPAFLASDILPLGARLRVAGELFSRRAPEGVDESLAAFGRRHLGHRATQVLLDAVQTGIYAGDVEQLSVAATFPMLVKMEREHRSLILGAIRAQKAQRQAALPAGTAPKLSGALSTFDGGLQVLIDALAASLGDAAHVGARVEGLAREDGGWRLIIEEHGRRAELSVAQVVLAAPAHATAKLLRPLDDALAALVAGIAYAPIAVVHLGFDAGTLPAPDGFGFLVPAEEQRRMLGAIHASTTFPFRAEGGRVLYSCIVGGARQPGLVEQDEDALAALAREELKALAGVTARPSFTRVFRWPLGIPQYNLGHLERVAAIDAALQRLPGLHLIGNAYKGVGLNDCIRNAAQLADALVAGNTSHAP	82%
